Source: US7425447 (Biogen, dated 2008)
Read-outs that look alike come from different tables or passages of the source.

T1: B7.1/Ig fusion protein (human, UniProt P33681 35-242, limits assumed)
T1 construct: Secreted from CHO cells; also called B7-Ig; B7Ig; not shown: human immunoglobulin CH2 and CH3
T1 sequence (looked up): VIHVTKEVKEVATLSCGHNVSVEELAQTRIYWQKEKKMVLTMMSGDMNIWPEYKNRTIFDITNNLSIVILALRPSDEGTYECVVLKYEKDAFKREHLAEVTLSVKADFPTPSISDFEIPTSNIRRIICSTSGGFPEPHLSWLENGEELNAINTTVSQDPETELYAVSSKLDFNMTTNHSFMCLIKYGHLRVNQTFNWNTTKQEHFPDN

T2: human B7.1 antigen (CD80), membrane associated (human, UniProt P33681 35-288)
T2 sequence (looked up): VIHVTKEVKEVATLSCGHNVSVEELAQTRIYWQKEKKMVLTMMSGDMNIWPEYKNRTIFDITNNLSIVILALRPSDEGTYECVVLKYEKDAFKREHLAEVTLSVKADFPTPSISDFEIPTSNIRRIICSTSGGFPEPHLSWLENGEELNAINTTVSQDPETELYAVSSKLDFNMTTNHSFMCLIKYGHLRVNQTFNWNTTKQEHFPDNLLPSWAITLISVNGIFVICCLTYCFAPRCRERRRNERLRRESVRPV

T3: B7 antigen (CD80) as used in surface plasmon resonance (UniProt P33681 35-242, limits assumed)
T3 sequence (looked up): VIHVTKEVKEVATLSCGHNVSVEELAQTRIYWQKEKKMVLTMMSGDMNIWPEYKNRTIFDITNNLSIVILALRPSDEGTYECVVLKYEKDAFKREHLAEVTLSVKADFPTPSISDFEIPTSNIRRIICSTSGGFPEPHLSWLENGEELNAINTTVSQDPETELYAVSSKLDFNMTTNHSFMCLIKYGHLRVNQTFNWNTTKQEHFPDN


What was measured:
[1] = biological target: human B7.1 antigen (CD80), membrane associated (human) (UniProt P33681); test: competition on B7.1 transfected CHO cells; competitor pair BB-1 and L307.4 (FIG. 8)
[2] = biological target: T1, B7.1/Ig fusion protein; test: Scatchard analysis, binding to B7-Ig coated plates (apparent Kd)
[3] = biological target: T1, B7.1/Ig fusion protein; test: as above; remark: listed apart in the source
[4] = biological target: T2, human B7.1 antigen (CD80), membrane …; test: cell-based or functional assay
[5] = biological target: T1, B7.1/Ig fusion protein; test: competition of 125I-B7.1Ig binding to CD28 positive peripheral blood T lymphocytes (FIG. 10)
[6] = biological target: T3, B7 antigen (CD80) as used in surface …; test: surface plasmon resonance
[7] = biological target: T1, B7.1/Ig fusion protein; test: cell-based or functional assay

cross-reactivity (competition) [1] | Kd [2] | Kd [3] | inhibition of IL-2 production in mixed lymphocyte reaction [4] | IC50 [5] | Kd [6] | concentration for equivalent blocking of IL-2 production against CTLA-4Ig, anti-CD3/B7 beads (8:1) [7] | Molecule
50% |  |  |  |  |  |  | BB-1 murine anti-B7 antibody
 | ~6.2 nM | ~6.2 nM | 5 µg/mL |  |  |  | monkey monoclonal antibody 7C10 (antibody, V domains shown, Cynomolgus monkey antibody from a heterohybridoma; The claims (CLM-00020) say that the amino acid entries are the even numbers of each pair; also called 7C10 monkey Ig; hybridoma ATCC HB-12117) VH: QVKLQQWGEGLLQPSETLSRTCVVSGGSISGYYYWTWIRQTPGRGLEWIGHIYGNGATTNYNPSLKSRVTISKDTSKNQFFLNLNSVTDADTAVYYCARGPRPDCTTICYGGWVDVWGPGDLVTVSS VL: AYELTQPPSVSVSPGQTARITCGGDNSRNEYVHWYQQKPARAPILVIYDDSDRPSGIPERFSGSKSGNTATLTINGVEAGDEADYYCQVWDRASDHPVFGGGTRVTVL
 |  |  |  | < 1 µg/mL | 4 nM | ~10 fold | PRIMATIZED 16C10 (antibody, V domains shown, Monkey variable domains with human constant regions, made in CHO cells; Biotinylated in some assays; also called P16C10; copies: 2 + 2) VH: QVQLQESGPGLVKPSETLSLTCAVSGGSISGGYGWGWIRQPPGKGLEWIGSFYSSSGNTYYNPSLKSQVTISTDTSKNQFSLKLNSMTAADTAVYYCVRDRLFSVVGMVYNNWFDVWGPGVLVTVSS VL: ESALTQPPSVSGAPGQKVTISCTGSTSNIGGYDLHWYQQLPGTAPKLLIYDINKRPSGISDRFSGSKSGTAASLAITGLQTEDEADYYCQSYDSSLNAQVFGGGTRLTVLG
 | ~8.1 nM | ~8.1 nM | 0.1 µg/mL |  |  |  | monkey monoclonal antibody 16C10 (antibody, V domains shown, Cynomolgus monkey antibody from a heterohybridoma; also called hybridoma ATCC HB-12119) VH: QVQLQESGPGLVKPSETLSLTCAVSGGSISGGYGWGWIRQPPGKGLEWIGSFYSSSGNTYYNPSLKSQVTISTDTSKNQFSLKLNSMTAADTAVYYCVRDRLFSVVGMVYNNWFDVWGPGVLVTVSS VL: ESALTQPPSVSGAPGQKVTISCTGSTSNIGGYDLHWYQQLPGTAPKLLIYDINKRPSGISDRFSGSKSGTAASLAITGLQTEDEADYYCQSYDSSLNAQVFGGGTRLTVL
 | ~10.7 nM | ~10.7 nM | 5 µg/mL |  |  |  | monkey monoclonal antibody 7B6 (antibody, V domains shown, Cynomolgus monkey antibody from a heterohybridoma; also called hybridoma ATCC HB-12120) VH: EVQLVESGGGLVQPGGSLRVSCAVSGFTFSDHYMYWFRQAPGKGPEWVGFIRNKPNGGTTEYAASVKDRFTISRDDSKSIAYLQMSSLKIEDTAVYYCTTSYISHCRGGVCYGGYFEFWGQGALVTVSS VL: EVVMTQSPLSLPITPGEPASISCRSSQSLKHSNGDTFLSWYQQKPGQPPRLLIYKVSNRDSGVPDRFSGSGAGTDFTLKISAVEAEDVGVYFCGQGTRTPPTFGGGTKVEIK
